From US20200002434A1 (BIOSION, published 2020)
Positions count from the first letter of the chain named. Names may count otherwise.

B1: 4C9 mouse anti-ErbB2 monoclonal antibody (antibody, mouse IgG1, V domains shown)
VH: QVQLQQSGAELARPGASVKMSCKASGYTFTSYTMHWVKQRPGQGLDWIGYINPSSGYTTYNQKFKDKATLTADKSSSTAYMQLSSLASADSAVYYCARASAYSLDYWGQGTTLTVSS
VL: DIQMTQSPSSLSASLGGRVTITCKASHDIDRYIAWYQHKPGKGPRLLIHYTSTLQPGIPSRFSGSGSGRDYSFSISNLEPEDIATYYCLKYDNLLWTFGGGTKLEIT
notes: also called 4C9G3F5; IgG 4C9
B2: 4H2 mouse anti-ErbB2 monoclonal antibody (antibody, mouse IgG1, V domains shown)
VH: B1 VH with Y27F, M34I, K63R, A87T
VL: B1 VL with R18K, H27Q, D70N, T107K
notes: also called 4H2H2H9; IgG 4H2
B3: 5G9 mouse anti-ErbB2 monoclonal antibody (antibody, mouse IgG1, V domains shown)
VH: B1 VH with A24T, T30S, M34I, G56D, T59A, K65R, K74Q, S77N, Y102F, Y106F
VL: B1 VL with R18K, T22S, I83V, K90N
notes: also called 5G91B42A3; IgG 5G9
B4: 5F12 chimera (antibody, V domains shown)
VH: QVQLQQSGAELARPGASVKMSCKASGYTFTSYTMHWIKQRPGQGLEWIGYINPSSSYTNYNQNFKDKATLTADKSSSTANMQLNSLTSEDSAVYYCARASSYSLDYWGQGTALTVSS
VL: DIQMTQSPSSLSTSLGGKVTITCKASQDINKYIAWYQHKPGKGPRLLIHSTSTLYPGIPSRFSGSGSGKDYSFRITNLEPEDIATYYCLQYDNLLWTFGGGTKLGIR
notes: also called 5F12 chimeric; 5F12 chimeric antibody
B5: 4C9 chimera (antibody, V domains shown)
VH: B1 VH
VL: B1 VL
notes: also called 4C9 chimeric antibody
B6: 5G9.v1 humanized antibody (antibody, V domains shown)
VH: EVQLVQSGAEVKKPGSSVKVSCKTSGYTFSSYTIHWVRQAPGQGLEWIGYINPSSDYTAYNQKFRDRATLTADQSTNTAYMELSSLRSEDTAVYYCARASAFSLDFWGQGTLVTVSS
VL: DIQMTQSPSSLSASVGDRVTITCKASHDIDRYIAWYQHKPGKGPKLLIHYTSTLQPGIPSRFSGSGSGRDYTLTISSLQPEDVATYYCLNYDNLLWTFGQGTKVEIK
notes: VH.v1/VL.v1, back mutations 0/0
B7: 5G9.v2 humanized antibody (antibody, V domains shown)
VH: B6 VH
VL: B6 VL with H38Q
notes: VH.v1/VL.1, back mutations 0/H38Q
B8: 5G9.v3 humanized antibody (antibody, V domains shown)
VH: B6 VH
VL: B6 VL with G43V
notes: VH.v1/VL.2, back mutations 0/G43V
B9: 5G9.v4 humanized antibody (antibody, V domains shown)
VH: B6 VH
VL: B6 VL with H49Y
notes: VH.v1/VL.3, back mutations 0/H49Y
B10: 5G9.v5 humanized antibody (antibody, V domains shown)
VH: B6 VH
VL: B6 VL with I58V
notes: VH.v1/VL.4, back mutations 0/I58V
B11: 5G9.v6 humanized antibody (antibody, V domains shown)
VH: B6 VH
VL: B6 VL with R69T
notes: VH.v1/VL.5, back mutations 0/R69T
B12: 5G9.v7 humanized antibody (antibody, V domains shown)
VH: B6 VH
VL: B6 VL with Y71F
notes: VH.v1/VL.6, back mutations 0/Y71F
B13: 5G9.v8 humanized antibody (antibody, V domains shown)
VH: B6 VH with A68V
VL: B6 VL
notes: VH.1/VL.v1, back mutations A67V/0
B14: 5G9.v9 humanized antibody (antibody, V domains shown)
VH: B6 VH with L70I
VL: B6 VL
notes: VH.2/VL.v1, back mutations L69I/0
B15: 5G9.v10 humanized antibody (antibody, V domains shown)
VH: B6 VH with Q74K
VL: B6 VL
notes: VH.3/VL.v1, back mutations Q73K/0
B16: 5G9.v11 humanized antibody (antibody, V domains shown)
VH: B6 VH with N77S
VL: B6 VL
notes: VH.4/VL.v1, back mutations N76S/0
B17: 5G9.v12 humanized antibody (antibody, V domains shown)
VH: B6 VH with I48M
VL: B6 VL
notes: VH.5/VL.v1, back mutations I48M/0
B18: 5F12.v2 humanized antibody (antibody, V domains shown)
VH: EVQLVQSGAEVKKPGSSVKVSCKASGYTFTSYTMHWIRQAPGQGLEWIGYINPSSSYTNYNQNFKDRATLTADKSTSTAYMELSSLRSEDTAVYYCARASSYSLDYWGQGTLVTVSS
VL: B6 VL with H27Q, D30N, R31K, H38Q, Y50S, Q55Y, R69K, L73F, V83I, N90Q
notes: as for B7
B19: 5F12.v3 humanized antibody (antibody, V domains shown)
VH: B18 VH
VL: B6 VL with H27Q, D30N, R31K, G43A, Y50S, Q55Y, R69K, L73F, V83I, N90Q
notes: VH.v1/VL.2, back mutations 0/G43A
B20: 5F12.v5 humanized antibody (antibody, V domains shown)
VH: B18 VH
VL: B6 VL with H27Q, D30N, R31K, Y50S, Q55Y, I58V, R69K, L73F, V83I, N90Q
notes: as for B10
B21: 5F12.v6 humanized antibody (antibody, V domains shown)
VH: B18 VH
VL: B6 VL with H27Q, D30N, R31K, Y50S, Q55Y, R69T, L73F, V83I, N90Q
notes: VH.v1/VL.5, back mutations 0/K69T
B22: 5F12.v7 humanized antibody (antibody, V domains shown)
VH: B18 VH
VL: B6 VL with H27Q, D30N, R31K, Y50S, Q55Y, R69K, Y71F, L73F, V83I, N90Q
notes: as for B12
B23: 5F12.v8 humanized antibody (antibody, V domains shown)
VH: B18 VH with I37V
VL: B6 VL with H27Q, D30N, R31K, Y50S, Q55Y, R69K, L73F, V83I, N90Q
notes: VH.1/VL.v1, back mutations I37V/0
B24: 5F12.v9 humanized antibody (antibody, V domains shown)
VH: B18 VH with I48M
VL: B6 VL with H27Q, D30N, R31K, Y50S, Q55Y, R69K, L73F, V83I, N90Q
notes: VH.2/VL.v1, back mutations I48M/0
B25: 5F12.v10 humanized antibody (antibody, V domains shown)
VH: B18 VH with A68V
VL: B6 VL with H27Q, D30N, R31K, Y50S, Q55Y, R69K, L73F, V83I, N90Q
notes: VH.3/VL.v1, back mutations A67V/0
B26: 5F12.v11 humanized antibody (antibody, V domains shown)
VH: B18 VH with L70I
VL: B6 VL with H27Q, D30N, R31K, Y50S, Q55Y, R69K, L73F, V83I, N90Q
notes: VH.4/VL.v1, back mutations L69I/0

What follows are binders tested against T1, human ErbB2 on ErbB2-positive cells (human, UniProt P04626 23-1255) (assay: cell-based or functional assay).
With B1 the “Internalization rate in SKBR3 cells, FITC signal, 2-hour” value was 23.8.
For B2, the “Internalization rate in SKBR3 cells, FITC signal, 2-hour” value was 17.7.

The binders below were run against T2, recombinant rat ErbB2-ECD (rat, UniProt P06494 23-654) (assay: indirect ELISA, coated ErbB2-ECD 1 ug/ml).
T2 construct: extracellular domain
T2 sequence (P06494 23-654): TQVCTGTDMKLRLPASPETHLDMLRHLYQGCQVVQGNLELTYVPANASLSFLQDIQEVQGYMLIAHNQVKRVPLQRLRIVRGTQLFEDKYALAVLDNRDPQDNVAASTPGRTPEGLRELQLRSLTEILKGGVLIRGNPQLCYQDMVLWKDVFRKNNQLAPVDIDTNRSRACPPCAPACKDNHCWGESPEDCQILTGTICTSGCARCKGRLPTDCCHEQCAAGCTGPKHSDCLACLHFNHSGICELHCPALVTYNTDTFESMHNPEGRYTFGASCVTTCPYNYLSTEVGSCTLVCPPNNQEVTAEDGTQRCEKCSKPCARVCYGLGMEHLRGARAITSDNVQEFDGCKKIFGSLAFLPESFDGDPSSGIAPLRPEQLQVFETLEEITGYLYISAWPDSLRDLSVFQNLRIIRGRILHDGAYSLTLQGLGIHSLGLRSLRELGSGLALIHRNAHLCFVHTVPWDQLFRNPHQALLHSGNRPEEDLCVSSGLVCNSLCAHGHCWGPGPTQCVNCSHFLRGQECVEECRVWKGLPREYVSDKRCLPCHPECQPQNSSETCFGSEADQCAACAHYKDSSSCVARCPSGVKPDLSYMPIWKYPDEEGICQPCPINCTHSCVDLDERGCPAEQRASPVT
Procedure: (§1) Using indirect ELISA described in Example 1, the binding activity of antibodies of this invention to recombinant ErbB2-ECD derived from different species such as mouse, rat, Macaca mulatta, Macaca fascicularis and human, was examined. Briefly. Coat 96-well ELISA plates with 1 ug/ml recombinant ErbB2-ECD of different species with 100 ul/well and incubate at 4° C. for overnight. Remove the coating solution by discarding and tapping gently on a filter paper. Add 200 ul/well blocking buffer, incubate at 37° C. for 1-2 hours. Add purified antibody of this invention and incubate at 37° C. for one hour. Wash the plate 3 times with PBST, add goat anti-mouse IgG-HRP 100 ul/well, incubate at 37° C. for one hour. Wash the plate 3 times with PBST, add 100 ul/well TMB after 15 min, add 50 ul/well 1N HCl. Read the plate with Microplate Reader at 450 nm wavelength.
B3: no binding.
B1: no binding.
B2: no binding.

These binders were tested against T3, recombinant mouse ErbB2-ECD (mouse, UniProt P70424 23-653) (assay: indirect ELISA, coated ErbB2-ECD 1 ug/ml).
T3 construct: extracellular domain
T3 sequence (P70424 23-653): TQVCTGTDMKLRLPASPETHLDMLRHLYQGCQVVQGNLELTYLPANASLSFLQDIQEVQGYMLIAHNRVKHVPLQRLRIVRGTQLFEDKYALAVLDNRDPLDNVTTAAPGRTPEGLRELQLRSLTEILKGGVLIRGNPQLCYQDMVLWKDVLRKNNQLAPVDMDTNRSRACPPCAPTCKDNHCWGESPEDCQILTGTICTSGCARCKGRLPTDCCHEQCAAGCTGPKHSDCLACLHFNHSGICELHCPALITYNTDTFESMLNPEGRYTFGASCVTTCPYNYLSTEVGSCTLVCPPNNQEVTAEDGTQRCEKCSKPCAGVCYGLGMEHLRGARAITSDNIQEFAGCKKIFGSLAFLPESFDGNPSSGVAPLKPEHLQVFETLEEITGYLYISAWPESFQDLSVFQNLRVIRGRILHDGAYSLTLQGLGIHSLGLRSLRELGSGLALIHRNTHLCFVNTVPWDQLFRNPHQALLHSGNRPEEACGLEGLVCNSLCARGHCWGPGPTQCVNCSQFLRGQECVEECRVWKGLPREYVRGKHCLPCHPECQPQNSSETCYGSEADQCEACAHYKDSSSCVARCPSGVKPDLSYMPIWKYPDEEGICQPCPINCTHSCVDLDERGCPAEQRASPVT
Procedure: as §1
B3: no binding.
B1: no binding.
B2: no binding.

What follows are binders tested against T4, recombinant Macaca mulatta ErbB2-ECD (Macaca mulatta, UniProt I0FM22 23-652) (assay: indirect ELISA, coated ErbB2-ECD 1 ug/ml).
T4 construct: extracellular domain
Procedure: as §1
B3: binds.
B1: binds.
B2: binds.

Each binder was assayed against T2, recombinant rat ErbB2-ECD (assay: indirect ELISA, coated ErbB2-ECD).
Procedure: as §1
(§2) Following the same method described in Example 5, the binding activity of the chimeric antibodies of this invention was examined for binding recombinant ErbB2-ECD derived from different species such as mouse, rat Macaca mulatta, Macaca fasciculari and human.
B4: no binding.
B5: no binding.

The binders below were run against T3, recombinant mouse ErbB2-ECD (assay: indirect ELISA, coated ErbB2-ECD).
Procedure: as §1, §2
B4: no binding.
B5: no binding.

These binders were tested against T4, recombinant Macaca mulatta ErbB2-ECD (assay: indirect ELISA, coated ErbB2-ECD).
Procedure: as §1, §2
B4: binds.
B5: binds.

What follows are binders tested against T5, recombinant human ErbB2 extracellular domain (ErbB2-ECD) (human, UniProt P04626 23-652) (assay: capture ELISA, recombinant ErbB2-ECD).
T5 construct: extracellular domain; Coated on plates or used biotin-labeled in solution (capture ELISA); also called Human ErbB2-ECD; rhErbB2
Binder B6 has an EC50 of 0.031 nM.
For B7, the EC50 was 0.062 nM.
With B8 the EC50 was 0.023 nM.
Work on B9 yielded an EC50 of 0.072 nM.
B10 was tested, and the EC50 was 0.013 nM.
Binder B11 has an EC50 of 0.044 nM.
Work on B12 yielded an EC50 of 0.053 nM.
With B13 the EC50 was 0.165 nM.
B14 was tested, and the EC50 was 0.054 nM.
Work on B15 yielded an EC50 of 0.029 nM.
B16 gave an EC50 of 0.081 nM.
Work on B17 yielded an EC50 of 0.029 nM.

These binders were tested against T5, recombinant human ErbB2 extracellular … (assay: capture ELISA, coated antibody, biotin-human ErbB2-ECD titrated).
Procedure: (§3) The corresponding purified IgG of five antibodies of this invention were also evaluated for their binding activity to recombinant human ErbB2 by capture ELISA. The procedure is briefly described as following: The 96-well plates were coated with 0.5 μg/ml anti-ErbB2 antibody overnight, blocked by 1% BSA in PBST at 37° C. for one hour. Add serial diluted sample of biotin-human ErbB2-ECD started with 2 μg/ml with 1:5 serial dilution. Wash the plate 3 times with PBST and add 100 ul of HRP-streptavidin (1:5000) to each well. Incubate for another 40 min at 37° C. Wash the plate 3 times with PBST and add 100 ul/well of TMB to develop at RT for 15 min followed by quenching with 50 ul 1N HCl. Read the plates at 450 nm for OD's value. Calculate the binding EC50 by using Prism software and the results are in Table 8 below
With B3 the EC50 was 0.499 nM.
B1 was tested, and the EC50 was 0.142 nM.
In the case of B2, the EC50 is reported as 0.117 nM.

Molecular target: T5, recombinant human ErbB2 extracellular …
Assay: capture ELISA, recombinant ErbB2-ECD
Remark: another data set of the same source
Procedure: as §3
The variable domains of the heavy and light chain of the anti-ErbB2 monoclonal antibodies (Table 12, above) were cloned in-frame to human IgG1 heavy-chain and kappa light-chain constant regions, respectively.
In the case of B4, the EC50 is reported as 0.024 nM.
B5 gave an EC50 of 0.114 nM.

Molecular target: T1, human ErbB2 on ErbB2-positive cells
Assay: cell-based or functional assay
Remark: another data set of the same source
With B3 the “BT474 cell proliferation inhibition IC50 (hIgG + 5G9)” value was ~1.33 nM.
With B1 the “BT474 cell proliferation inhibition IC50 (hIgG + 4C9)” value was 0.471 nM.
In the case of B2, the “BT474 cell proliferation inhibition IC50 (hIgG + 4H2)” value is reported as ~1.17 nM.

Molecular target: T5, recombinant human ErbB2 extracellular …
Assay: capture ELISA, recombinant ErbB2-ECD
Remark: another data set of the same source
For B4, the EC50 was 0.043 nM.
B18 gave an EC50 of 0.034 nM.
Binder B19 has an EC50 of 0.026 nM.
B20 was tested, and the EC50 was 0.028 nM.
For B21, the EC50 was 0.032 nM.
For B22, the EC50 was 0.152 nM.
For B23, the EC50 was 0.018 nM.
Binder B24 has an EC50 of 0.023 nM.
Work on B25 yielded an EC50 of 0.032 nM.
With B26 the EC50 was 0.028 nM.
